Test results published in the DeepSol protein solubility set.

Test: soluble on expression in E. coli; label from the status in PepcDB or PDB records

| Sequence | soluble on expression in E. coli |
| --- | --- |
| MGSDKIHHHHHHMQKRHKDRQCYFNELANTSRSFYIDYVKQFISLSPSTHILEIGCGEGGNLLPFAELGCKVTGIDRAASRIHQAETFFTASGYKGEFTTTDFFNFSSASRYQLILIHDVIEHISNKEEFFRCLSPLLAKRGIIFWGFPSWQMPFGGHQQICHNRFVSSLPFIHLCPGILYRFLLRCFHETPSCIEELSDIKRCRMTIDTFEQLAEKYGYEITDRQLWFINPHYQQKFHLRPRKLYPVLAQLKYIRNYFSTSCFYITRHRELHD | not soluble |
| MDVMNAFDSQAEDSPTSLGRSLRRRPLARKKLSEMVEEELEQMIRRHEFGEGEQLPSERELMAFFNVGRPSVREALAALKRKGLVQINNGERARVSRPSADTIISELSGMAKDFLTHPGGIAHFEQLRLFFESSLVRYAAEHATDEQIALLTKALEINSQSLDDNALFIRSDVEFHRVLAEIPGNPIFMAIHVALLDWLIAARPSVPDRELHEHNNVSYQQHIVIVDAIRQRDPDKADRALQTHLNSVSATWHALGKKSQKMR | not soluble |
| MGSDKIHHHHHHMIYKADNNVRQKLVEMFDDFDSTIVLSYLQGHMGSAWVDNLENPTVAQITVGIFVFYAGNPNAEEAEELLYNLPDFTLAIVDSDEWKKRIETVHKGSIEKFQRFRFNKNPGDLDKEYIRDILSTLPQNYEMKKIDKDIAKASSFHALSEDFTSQFDSIDDFIDRGVGYAILNKGQVVSAATSFSIFDDGIEIEIASHPEHRRKGLAKIVASALILDCLDREKYPSWDGANVESVELAKKLGYTFKEPYDTYFIQIKK | not soluble |
| LSKPKLAVVGARKCSETGKQSVRKIVHELGNAFTIVSGLARGIDTCAHMEALKNKGNTIAVIGTGLDVYYPKENKALQDYMAKNHLVLTEYGPGEQPLKYHYPERNRIISGLCQGVMVVEAKLRSGSLITCERAMEEGRDVFAIPGNILDGKSDGCHHLIQEGAKCITTGFDIISEFS | not soluble |
| MGSSHHHHHHGSSNILIINGAKKFAHSNGQLNDTLTEVADGTLRDLGHDVRIVRADSDYDVKAEVQNFLWADVVIWQMPGWWMGAPWTVKKYIDDVFTEGHGTLYASDGRTRKDPSKKYGSGGLVQGKKYMLSLTWNAPMEAFTEKDQFFHGVGVDGVYLPFHKANQFLGMEPLPTFIANDVIKMPDVPRYTEEYRKHLVEIFG | soluble |
| MSEEQKTISISELESMNIKQLYEIAKSLGIPRYTSMRKRDLIFAILKAQTESTGYFFGEGVLEIHPEGFGFLRRIEDNLLPSNDDIYISPSQIRKFNLNTGDIISGVIRKPKEGEKYFAMIKIEAINYRPVEAVNDRVNFDNLTPDYPRERFILETDPKIYSTRLIDLFAPIGKGQRGMIVAPPKAGKTTILKEIANGIAENHPDTIRIILLIDERPEEVTDIRESTNAIVIAAPFDMPPDKQVKVAELTLEMAKRLVEFNYDVVILLDSLTRLARVYNIVVPPSGKLLTGGVDPAALYKPKRFFGAARNTREGGSLTIIATALVETGSKMDEVIFEEFKGTGNMELVLSRQLANKRIFPAINLLLSGTRREELLLDEETLKKVWLLRRMLSAMTEEEGLTLILNKLSETSSNEEFLKLIDKEKARY | soluble |
| PGTESTFSNCYALNVEVVSLDSGDQAVLGGFVGQVSANFIAKHCYVSAKVTGGKNPGAFVGMTADESMNCKYDGCFYNNEQNP | not soluble |
| MNDHTAAIAAHFDQLAPNLDRWRRRNRTYYRDLEKLHRFWIPTGSRVLQVGSGLGDLLATVEPSFGIGIDVSPQAVAIAQQRHPQLQFHCLAAEELTPEAIGNPEPFDAIILTGVLSYLTDIQVVLEQLQAFCHPRTRLILGFHNFLWQPLLTAAEKVGQRSPQPPESWLGMQDVLNLLTLTGYEPIKQGLEHHHHHH | soluble |
| MEPWLVGIDLGGTTIKMAFVTTEGDIVHKWEIPTNTANRGEHIVADIARSLEKTLGQLGGAKERLLAAGIGAPGPVEEETGMLYETVNIGWTNYPLKQRLEEATGLPVSVDNDANLAALGEMWKGAGGGARHLLFVTLGTGVGGGVIANGAIVRGINGAGGEIGHMTMIPDGGARCNCGKTGCLETIASATGIVRIAKEKLTADERPSELRNGDVTAKAVFDAAKAGDALALEVVDEATYYLGWALANAANVTNPEKIVIGGGVSKAGDMLVERVAAHFRRFAFPRVAAGAKLVLATLGNDAGVIGAAWLAKELVGA | not soluble |
| SLKKEISILNIPFYNTTQAGFVEELYMAAKNGERRFVVTANPEIVMHARTDKEFEAILGQADYIVPDGIGIIMASEKLGEPLKERVTGYDTMVGLLNKPLSCYFLGAKPEISEVVEAKVREKFPQAVVCGVHHGYFDVLESEAIAKEILVAQPDVIFVALGSPAQEKWILSQIANFTKGIFIGVGGSFDVLTDSVKRAPKIWIKLRLEWVYRLLSNPSRWRRFFAIPQFMLVIRKERKRLKKG | soluble |
| MSLNEITLNVLYNLPGFTKFHQPLADEFMKKNPDVKINFLAPAAGYNEGQQQVLRSAVTGNLPDVYFSGYNLTAELVHTLAPRNQITDLGPFIQAEGGQAFLDKNYSPKMAALGQIDGKQYGLPVNASSPIIYINSDLVTKAGGDPDKMPTTFPELIALAKKIKALDPKFAGMSYDINGWPDDWLWQALVVEQGGKLVDDKTKTVAFDNEIGLNALKMTRQFVTEGGQNLLDWDQSRQQFGAGLTGFIFSTPAHVQTIQGLVGDRFKLKTATFPLDNKEKGGVPTGGNSAVILTQEKAKQDAAWKYLKWITGPEAQNTIVRITGYLPTNKLATGPDFLAPYYVENPNVKTASLQADRSLPWAGYPGGDSVRIWRTQRDIIGTVMRGEVTPEAGLKQIVEQTNALLKEGHHHHHH | soluble |
| MGVSLSKGGNVSLTKEAPGLTAVIVGLGWDIRTTTGTDFDLDASALLLNSGGKVASDAHFIFFNNLKSPDGSVEHTGDNITGEGEGDDEQIKINLATVPADIEKIVFPVSIYDAENRQQSFGQVRNAFIRVVNQAGEAEIARYDLSEDASTETAMVFGELYRHGAEWKFRAIGQGYASGLRGIAQDFGVNV | soluble |
| MEAVWGILPKTVAAALQHHLPSCRRGIEEIRIRVSRPLEVIVDGTARLLPYEVTKEDGVHLLNKLSHYSIYAVEEELKRGFMTIEGGHRVGLAGKVITEGGKVKAIRDVSSFNIRIAKEQIGISEPLIPYVYDGRWRHTMIIGSPQTGKTTLLRDAARLISSGTGRIPAQKVAIVDERSEIAGCVKGIPQFSFGPRLDVLDACPKAEGMMMMIRSMSPDVMIVDEIGREEDSEAVLEAANAGVSVWTTVHGRNIQDVWQRPTLGPVMEQKVFERFIELTNIPHPGSIRRILDAGGTVLYERAVVHR | not soluble |
| RSVRVLVDMDGVLADFEAGLLRGFRRRFPEEPHVPLEQRRGFLAREQYRALRPDLADKVASVYEAPGFFLDLEPIPGALDAVREMNDLPDTQVFICTSPLLKYHHCVGEKYRWVEQHLGPQFVERIILTRDKTVVLGDLLIDDKDTVRGQEETPSWEHILFTCCHNRHLVLPPTRRRLLSWSDNWREILDSKR | soluble |
| MVRTITVASGKGGTGKTTITANLGVALAQLGHDVTIVDADITMANLELILGMEGLPVTLQNVLAGEARIDEAIYVGPGGVKVVPAGVSLEGLRKANPEKLEDVLTQIMESTDILLLDAPAGLERSAVIAIAAAQELLLVVNPEISSITDGLKTKIVAERLGTKVLGVVVNRITTLGIEMAKNEIEAILEAKVIGLIPEDPEVRRAAAYGKPVVLRSPNSPAARAIVELANYIAGGAKKKVPAEVKEKKKEGALAKMLRIFRRR | soluble |
| MGSDKIHHHHHHMQEDISRKSPMLSNIKSWYRRRIIENHSVPDDIWQNAIARLRFLQALEAVELERLRECVVLFLHVKQISGAHGLVITDEMRVLIAAQACILILNLDLDYYDGWVEIIVYPGEFIRDYEYVDEDGIVHHAVEPASGESWLGGPVILSWEDAVAAVSGTEISQGYNVVIHEFAHKLDMLNGEANGFPPIHPDMSRQAWSEAFSKAYADFCRSIDAGEMMEIDLYAAESPAEFFAVISEAFFEMPISVRIHFPAVYEQLALFYRQDPAQRRSEP | not soluble |
| MGSDKIHHHHHHMKQAYIFDMDGTLFQTNRILGHALEDAFDFLRMNGRWTGKTPLAEYQTIMGVSLPEVWQTLLPGHSDEERALVDRIFQDALIRHIEQGQGALYSGAEATLQALKETGHPLYIASNGWKVYLTAIVRQYGLNRWLDGVYSIEDVASSQKSDLVAYILSEHQLTDMVVVGDRISDFQAAKVNRLPAVGCRFDFSNEAELEQADVIIDDLRELFQIDLKAVTK | not soluble |
